Laboratory results as given in patent publication US20260242852.

Biological target: AsCas12a (Acidaminococcus sp.?) (UniProt U2UMQ6)
Assay: BLI
Conditions: ΨDNA guide binding without target; NEB 2.1, 0.05% Triton X

Sequence: AGCACCCAGTCCGCCCTGAGTAGATGTGAATCATCTTTAAT [AsCas12a GFP ΨDNA 3'-biotin]
- Kd: 24.5 nM
